This series in a line: soluble on expression in E. coli; label from the status in PepcDB or PDB records.
In the case of “MASSSSTLPLHMYIRPLIIEDLKQILNLESQGFPPNERASEEIISFRLINCPELCSGLFIREIEGKEVKKETLIGHIMGTKIPHEYITIESMGKLQVESSNHIGIHSVVIKPEYQKKNLATLLLTDYIQKLSNQEIGNKIVLIAHEPLIPFYERVGFKIIAENTNVAKDKNFAEQKWIDMERELIKEEYDN”, the “soluble on expression in E. coli” value is “soluble”.

“MASTIKEALSVVSEDQSLFECAYGTPHLAKTEMTASSSSDYGQTSKMSPRVPQQDWLSQPPARVTIKMECNPSQVNGSRNSPDECSVAKGGKMVGSPDTVGMNYGSYMEEKHMPPPNMTTNERRVIVPADPTLWSTDHVRQWLEWAVKEYGLPDVNILLFQNIDGKELCKMTKDDFQRLTPSYNADILLSHLHYLRETPLPHLTSDDVDKALQNSPRLMHARNTGGAAFIFPNTSVYPEATQRITTRPDLPYEPPRRSAWTGHGHPTPQSKAAQPSPSTVPKTEDQRPQLDPYQILGPTSSRLANPGSGQIQLWQFLLELLSDSSNSSCITWEGTNGEFKMTDPDEVARRWGERKSKPNMNYDKLSRALRYYYDKNIMTKVHGKRYAYKFDFHGIAQALQPHPPESSLYKYPSDLPYMGSYHAHPQKMNFVAPHPPALPVTSSSFFAAPNPYWNSPTGGIYPNTRLPTSHMPSHLGTYY”: the “soluble on expression in E. coli” value was “soluble”. Then “MASTIYTCKECGSDLNLNPNDLFPPDFYFEAGNKGTLSFAAVDAEKFRFEKEDKIMPFFETLNYWGIQRKRTKIKCTSCNHLIGYIYDDGPPLTGGIGQYGFGPSQVIPRAPRYRFKTKARQDGWQYGGLTAFWN”, with “not soluble”; and “MASYYEILDVPRSASADDIKKAYRRKALQWHPDKNPDNKEFAEKKFKEVAEAYEVLSDKHKREIYDRYGREGLTGTGTGPSRAEAGSGGPGFTFTFRSPEEVFREFFGSGDPFAELFDDLGPFSELQNRGSRHSGPFFTFSSSFPGHSDFSSSSFSFSPGAGAFRSVSTSTTFVQGRRITTRRIMENGQERVEVEEDGQLKSVTINGVPDDLALGLELSRREQQPSVTSRSGGTQVQQTPASCPLDSDLSEDEDLQLAMAYSLSEMEAAGKKPAGGREAQHRRQGRPKAQHQDPGLGGTQEGARGEATKRSPSPEEKASRCLIL”, with “soluble”.

For “MATAIAITSLLIISGCSSNVETTTVKKETMQSQQKNTETVNTTPQNFYKDITSGKIEHIHGIGYVGNVPWVSIATHSGIKVYQNGKWLETATQLHDYMGFQATKNGFFASGHPEPGANLKNPLGLMKSSDGGNTLEKLAFYGESDFHNLAVGYNTEAIYLYNERPNSKLQQGFYFSTNNGQDWKNSKLKGLSSTVHSFSVHPDQSSVVAVSTKDGVYLSTDYGNTFELFSKSLESTAVTLSNEDVIYAPINTQIVTKKSIATNEETNIQIPLLDSKDAIMYISQNPQNAAEIVFATMKANVFLSTDEGKTWKQLTKEGTLQFN”, the “soluble on expression in E. coli” value was “not soluble”. Turning to “MATANNPPSGLLDPTLCEDRIFYNILEIEPRFLTSDSVFGTFQQSLTSHMRKLLGTWMFSVCQEYNLEPNVVALALNLLDRLLLIKQVSKEHFQKTGSACLLVASKLRSLTPISTSSLCYAAADSFSRQELIDQEKELLEKLAWRTEAVLATDVTSFLLLKLVGGSQHLDFWHHEVNTLITKALVDPLTGSLPASIISAAGCALLVPANVIPQDTHSGGVVPQLASILGCDVSVLQAAVEQILTSVSDFDLRILDSY”, the “soluble on expression in E. coli” value is reported as “soluble”. Turning to “MATATMLKPLGDRVVVKRIEEEAKTKGGIVLPDTAKEKPQKGKVVAVGSGRTLDNGTKVPLEVKEGDTVVFAKYGGTEIEIDGEEYIILSERDLLAVI”, the “soluble on expression in E. coli” value was “soluble”. With “MATFFLLSAGKAQDRIPACPPLGKTLKMIKPLREMNWANDTIAVQTSFPSAFRETGRDEIIDSIALLTPVFERLRQVRAGLSEDTVRILHIGDSHVRGHIYPQTTGTLLKETFGAVSYTDMGVNGATCLTFTHPGRIADIAAMKPELLILSFGTNESHNRRYNVNLHYNQMDELVKLLRDSLPDVPILLTTPPGSYESFRQRRRKRTYAINPRTVTAAETIRRYAKDHRLLVWDMYDVVGGKRRACTNWTEAKLMRPDHVHYLPEGYILQGNLLYQAIIQAYNDYVSH”, the “soluble on expression in E. coli” value is listed as “not soluble”. Then “MATFSISAMAAQCGVTTANIRSWERYGLLQPTKDEAGNRFYCIEDAIRIQHIIDALSKGFSLKEIKPALYGEETHCRSGWLFYQEEILAQCRKFEPAKLRKLLWRYGREIPPCIVIESILRPLRLWLSAGDDDARRFEKALLDTAIIEYATFQLSSVRKAPAGTMLIAAFSLNDPIELWLETIKYCSEGMRVEVIPWQAPMPDLLSTSFEHIVLWHDETLTPAQENLIQALKESGKFSLHVKNGSGLTLLPAVYRQHEMPESMQHVAPQIHANGYEKSGTAR”, with “not soluble”; and “MATNLIGLDTTQSQKLANALNNLLANYQVFYMNTRGYHWNIQGKEFFELHAKFEEIYTDLQLKIDELAERILTLSARPMHSFSGYLKAAQIKEHTDSIDGRSSMQGLVDGFSILLHQQRDILELAGETGDEGTSALMSDYIREQEKLVWMLNAWLK”, with “not soluble”. Turning to “MATNLKSIAKLQKPIQYDKVIEVDRIFADPAFIEQHRQRILASFKDAKESALYHELTHIVIKDNLFSAAMNEIVSYFEFQINPEELKNVVEGLKRDVVKDADEKTIQSIAEKIIKKALVFNFLQKEWKVEVSDDIVKRVISLYYEKTNQNVREYLDDKQKFEGIRTALIEERMVLETINHFKFHFNLTGQLPS”, the “soluble on expression in E. coli” value is given as “soluble”. As for “MATSMIQRLFKQGTKIVGVGLNYASHAKELGNALPKDPIVFLKPTSSYLENGGTIEIPHPLDSLHHEVELAVVIGQKARDVPERLAMNYIGGYALALDMTARELQVSAMASGLPCTLAKGQDTFTPISSVLPKAMVLDPNNLELWLKVDDETRQKGWTKDMIFKVPYLISYISSVMTLFKGDVILTGTPEGIGPVKIGQKITAGITGLSEVQFDVGRRLKPLLR”, the entry is “soluble”; as for “MATTEQLANTTQKEPVIDLDQDSNMEIAHKIQNQTKRLPISEPANKNKNVTSKQNKETNRKTFEKSKRMATSTIQDRVLRTQKTRKDKESTTEKVNAILKKSAKQIKVREEEEGDDDLEDELTLYPSKRKMMVGSKNRKRTIKPNRDTIAEEQETDGEHGVKQRAFDPKQRHRQCPECLLLFSTPDKLKRHMKSHGDVPDVYCSLCNTPIKFKYNLRVHLEKCYDKMKLSLHDSMLSKVYPDFVRKLQEAAKNPVLPMPTLEGMPYEFTLKGVVGFDTSLDITKDLMLAKYEQKKQRELAGIDSDDSDELDYFDDFPDE”, “not soluble”; as for “MATTIPGSLVNKTKKFFMGMPAPTGYVPGVGRGATGFTTRSDIGPARDPTELPEAGPVGPSPQGASSSSAPPAKRARDDDGDGEDLNEANYDEFSGYSGSLFSKDPYDQEDEDADRIYNEVDDRLDERHKERREKKYKELVELFHKDRPKIQQGFQDLKRQLAEVTEDEWQAIPEVGDMRNKAKRNARAEKFTPVPDSIIAMNMNYGQMSHSIDSGNGLTTPFASGFMSTLGGGGGAAAAGAKSGIMTPGWKSDIPSSGTSTDLDLVKIGQARNKIMDMQLTQVSDSVTGQTVVDPKGYLTDMQSIIPQMGGDLQDIKKARMLLKSVRETNPRHPPAWVASAVLEEQAGKLQTARNFIMEGCEKIKNSEELWLHAIRLHPPELGRSIVANAVRSCPHSVRLWCKASDLEQDLKDKKKVLRKALEQIPSSVKLWKAAVELEDPEDARILLTRAVECCSSSTEMWLALARLETYENARKVLNKAREHIPTDRHIWLSAARLEETRGQKDMVDKIVAKAMSSLKVNQVEINRDQWLKDAVDAEMAKCPITCQAIIRNVIGLGVEDEDKRTTWLADAENFEKEEAFTCVRTVYAIALKEFSRKRSIWDAAIHFEREHGSLDEHEAILLKACETVPEVEDYWLMLAKLRFVNKRVGEARDTLMSAFEKHGHQSEKIWLAATKIEIETDQFDTARGLFGKARAKAPSARVWMKNAHFEWCLGNVEEAKRLCEECIQKYDDFHKIYLVLGQVLEQMNDVHGARLAYTQGIRKCPGVIPLWILLVRLEEKAGQIVKARVDLEKARLRNPKNDDLWLESVRFEQRVGCPEMAKERMSRALQECEGSGKLWAEAIWMEGPHGRRAKSIDALKKCEHNPHVLIAAARLFWSERKIKKAREWFVRAVNLDPDNGDAFANFLAFEQIHGKEEDRKSVFKKCVTSEPRYGDLWQSVSKDPINWRRTTEEILQLATQKIKVPT”, “not soluble”.

Regarding “MAVDGLVSEKIKELLKELGKTYKLVVLTADTYGTLEKEFNGLPITVDKIKNEIEKEKAAEKYSPYIGIGNGNNDCLMLEKSELGILIIGEEGASTNALLKSDIVINNIKDAINLLLNEKRIIATL”, the “soluble on expression in E. coli” value was “not soluble”. Then “MAVEAVWESARILANSRFAVAFTGAGISAESGIPTFRGKDGLWSRFDPRDLATPEAFNRDPRLVWEWYSWRIERVLAAKPNKAHRLLARLEDSGVLKAVITQNVDGLHRRAGSRRVLELHGNVLRARCTRCGSKLEWREKPSNLPPSCPRCGGVLRPDVVWFGEPLDTSLLEEAFGLARRSDVMIIIGTSGAVDPAGLLPLAAKESGATLINVNPEPNRYSGVADIELRMRAVEFAERLSRAMGIDI”, with “soluble”. Then “MAVKKIAIFGATGQTGLTTLAQAVQAGYEVTVLVRDSSRLPSEGPRPAHVVVGDVLQAADVDKTVAGQDAVIVLLGTRNDLSPTTVMSEGARNIVAAMKAHGVDKVVACTSAFLLWDPTKVPPRLQAVTDDHIRMHKVLRESGLKYVAVMPPHIGDQPLTGAYTVTLDGRGPSRVISKHDLGHFMLRCLTTDEYDGHSTYPSHQYQ”, with “soluble”; and “MAVMKVLIVEDETAAYENLTDILTEITPDIRIMANTESVTQTVGWLQSNPAPDLIFMDIHLSDGSAFAIFDRIELETPIIFTTAYDRYAIEAFKVNSIDYLLKPVKVEDVEHALEKYSKLTRQDLLQYLSQLTLLKPAPRYKDKLLIAHKDKLLPVNIKNISYFYATGKNTYVCLKDGNRYPYSKTLEQIASSLNPEDFIRANKQFIVARDSVTDITIWFDNRLLITLDTEVPERIYVSKNKASEFKTWLVNDK”, with “not soluble”. Turning to “MAVNLYDYANQLEQALRESEEYKAIKEAFANVKANEESKKLFDEFRETQINFQQKQMQGEEIAEEDLQKAQEQAQAIEKDENISALMNAEQKMSQVFQEINQIIVKPLDEIYAD”, the “soluble on expression in E. coli” value is “not soluble”. Regarding “MAVQLLENWLLKEQEKIQTKYRHLNHISVVEPNILFIGDSIVEYYPLQELFGTSKTIVNRGIRGYQTGLLLENLDAHLYGGAVDKIFLLIGTNDIGKDVPVNEALNNLEAIIQSVARDYPLTEIKLLSILPVNEREEYQQAVYIRSNEKIQNWNQAYQELASAYMQVEFVPVFDCLTDQAGQLKKEYTTDGLHLSIAGYQALSKSLKDYLY”, the “soluble on expression in E. coli” value is listed as “soluble”.

Consider “MAVQRYFVSGQAQQGGIVAISGDDAHHIARVMRMKPGDGIICVFPDGRTAVCEIEQIANEHVQARIVQWKEERSELPVRIYIAQGLPKGEKWELVIQKGTELGAAGFLPFEAARSVVKWDAKKAEKKVERWKKIAKEAAEQAERTVVPDVRAPLSFVELLAFGQTVDVRLFAYEKEARNARHAALPALLSRLRPGGALLAVFGPEGGFSPEEAEQLRQHGFSPCSLGPRILRTETAPLYLLSAASYEWELRAGGEAARGR”, for which the “soluble on expression in E. coli” value is listed as “not soluble”. “MAVRIRLAKFGRKHHPIYRIVVMDAKSPREGKYIDILGTYDPKRKVLINVYPEKVKEWVLKGVELSHRAKAILWNHGILKEVVPEGYEMKRVGDYYVFEKRESKKSKGGEAA”: the “soluble on expression in E. coli” value was “soluble”. “MAVSLSKGGNVSLSKEAPGLTGIVVGLGWDPRATDGQAFDLDGSVFLLDAGGKVRGDSDFIFYNNKTSSDGSVEHTGDNTTGAGEGDDETVKIDLSKVPADVDKIAVCVTIHEAETRNQNFGQVSKAYIRVMNQTGGAEIARYDLSEDASTDTAMIFGEVYRHGSDWKFKAVGQGYAGGLAPLARNYGVNV”: the “soluble on expression in E. coli” value is “soluble”.

The values above are taken from the DeepSol protein solubility set.
